This note sets out measurements from a protein production outcome set (Wang et al. 2014).
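Further: failed if final PepcDB status was selected cloned or expressed and not failed if soluble or beyond.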

This data set can be described thus: label from the status in PepcDB records.
“MFRIIQPHRWKLAVLMIAANLGLLAFLAFGTIKHVSEWQWLDIVGEGGSALLSLVWLFLVFKSRPAGRVTNYLSVGLSCVFFSWWIDALDEFIRLPAEIEWDHWLESGPMPVGLILLTLGIYHWHREQLAISAQMEKRERGFREHRLYDKLTPLGSADYLKRQLIVSLEQSLCQQQPLSLLALDLDGFSTINNAFGHAEGDEVLSAISHLLVLNLRRQDLLCRLAGDRFVVLMPNTGESQAKLLALELQQAVASLAHKTRQQGERLHLSASVAVVMALNETPDNLLRRLNLSLARARRPLTRTA”: the protein production result was “failed”. For “MFRPENVQALAGLALTLGLCWLVSENRKRFPWGLAIGAVVIQVLLVLVLFGLPQAQQMLRGVNGAVEGLAASTQAGTAFVFGFLAGGDQPYPVSNPGAGFIFAFRVLPVILVVCALSALLWHWKILKWLAQGFGFVFQKTLGLRGPPALATAATIFMGQVEGPIFIRAYLDKLSRSELFMLIAVGMACVSGSTMVAYATILADVLPNAAAHVLTASIISAPAGVLLARIIVPSDPMEKSADLDLSTEDKTYGSSIDAVMKGTTDGLQIALNVGATLIVFVALATMVDKVLGAFPPVGGEPLSIARGLGVVFAPLAWSMGIPWKEAGTAGGLLGVKLILTEFTAFIQLSKVGEALLDERTRMIMTYALCGFANIGSVGMNVAGFSVLVPQRRQEVLGLVWKAMMAGFLATCLTASLVGLMPRSLFGL” the value was “failed”; for “MFRWFIAAIEDVYLPVPVMHLLTSNFAPFPWQHLDYTVVQLTKQDSNCLQALFERCTDFFNLTTGQPPASTAAEAEFVDVPAGKTPEDLHVFGLHHPQKGLIGTIIAVQDYPEAATWWIGTMLIDPVYRSQGVGSAFYQAFERWLAAQGVTGIELCAIASNTSGRAFWQRMGFEEIRQTPSRSFGQRHHIAHVYRRCLILLTRRAEFESYDPLNSLNAYLCKTEVINWQHPDIQALAQQLAAGHETPVVIAQACFEWVRDAIRHSVDYQMNPVTWRASDVLQHKTGYCFAKSHLLAALLRANQIPAGFCYQRLSIDDRGTPYSLHGFNAVYLPITGWHRVDPRGNKPGIDTKFSPPIEHLAYQPKLDEEADFSAILAEPLAIVVTALQTHATWDALLHHLPDMTPNTATTIGLYCY”, “failed”; for “MFSKGVDSLDRTQDDPVHCMPGLTAGLSGRLLLLTVIFVMIAEVLIFVPSVANMRLSWLRDRLNTAAAAGAVIDGLQAELPRSVQNDTLMATGAKLIALRKDGTSRLLAVAETPPGVDEQYDLSDVSQAAAVRDAFSTLLFGGNRVIRVFDVVGDSDTIIELVLGENKLRAAMLAYARNVFLISIVLSLVTAGLIFISINRIMIRPIRRLTLGMQNFSEDPGNPERIFVPEEGTDELSVAGRHLADMQTELQKTLRQQKNLVDLGLAVSKINHDMRNILSSAQLMSDRLVDAKDPMVRSFAPKLLRTIDRAVAYTGEVLAYGQATEGAPKRKIVPLSLLVRDVRDILALDPDSGIEFHDSVPPDLTVDADSEQLFRVIHNLCRNAVQALQSDVANSAPRHLSISAQRAGSVVSIVIDDNGPGMPRKAKENLFSAFRGSARSGGTGLGLVIARELVLAHGGTIALVEKPGPGTQFRIEIADRAASIQAARTA”, “failed”. For “MFSMILSGLICGALLGFVMQRGRFCLTGGFRDMYIVKNNRMFYALLIAISVQSVGVFALIQAGLLTYEAGAFPWLGTVIGGYIFGLGIVLAGGCATGTWYRAGEGLIGSWIALFTYMVMSAVMRSPHASGLNQTLQHYSTEHNSIAETFNLSVWPLVAVLLVITLWVVMKELKKPKLKVATLPPRRTGIAHILFEKRWHPFVTAVLIGLIALLAWPLSEATGRMFGLGITSPTANILQFLVAGDMKYINWGVFLVLGIFVGSFIAAKASREFRVRAADAQTTLRSGLGGVLMGFGASIAGGCSIGNGLVMTAMMTWQGWIGLVFMILGVWTASWLVYVRPQRKARLATAAAN”, the protein production entry was “failed”. For “MFSPEQIAGKDVRLLRIKKEGSLDLALEGGVDSPVGKVVVSAVYEGGAAERHGGVVKGDEIMAINGKIVTDYTLAEAEAALQKAWNQGGDWIDLVVAVCPPKEYDDELTFF” the value was “not failed”; for “MFSQWVFLSVLALAVPSFAWAEDAVSDLAREQSKAEQGDKRGDELFAEFTRLRQAAETGEPQALFDFGAYFYQQQNYASAREWWGKAAAAGMVRAQIQLAMLYRDGDGGPQDKTEAARWFRKAAEQGDAAAQNEMGVLYWRGEGVDQDRVKAGTWFERAAASGSEDAETNLGWFYLDDSQGVYSATSDEEAALLDRYAGSREKAFQWFCKAATQGDARAQFKVGEAYWNGSGAGMNKLQARLWLEKAAQQQDADAIAWLESAANAAWYTRLENWIHAALDGELSGVADCSGAADRRHSGRGMEGAPSDPEAVEASAEDAQQAVEAASQ”, “failed”. “MFTAYKKFWTNYVNFTGRSSRSDYWWAILCNSLIILPFVFTATSIFYSNLIEFIRGSAISTFSGEESVLSVYSIDVIILFIIIVLFSLAILLPNLAISIRRLRDAGFHWSLIFVPIGAALFSFLGLIPFLRAIVSIIVWFALIFYYILLCQPSKPYQAPVQPIAPQQPQQMAPQGQPVQAQVQPQSQTTPQQPQTPPVQQPQAPTNQQ”: the protein production result is on record as “failed”. Next, “MFTHLDENQQPRMVDISQKVAGDRRAVAQCIVQLPKAIKDYLTGQEIFLKKGPVIQTAIIAGTMAVKKTADLIPFCHTLPIHGCKFDINIVYQKRDYLEIFLQCAVNTNYKTGVEMEALCGVSVAALTIYDMCKSISSEIIIKNTKLIEKTGGKADVSQTPLYGLVLTGGKSRRMGKDKALINYQGQPHGQYIYDLLAKYCEQVFLSARPSQWQGTPLENLPTLVDRGESVGPMSGILTALQSYPGVNWLIIACDLAYINSTMVEKLIAQARQDLVATCYENADQGFPEALCGFYTPLALQLFTKAQNIGLHCPVKILQMADCQLIKPDNLFDIANINSPEDYGQINLEHHHHHH”: “not failed”; “MFTMDDLNQMDTQTLTDTLGSIFEHSSWIAERSAALRPFSSLSDLHRKMTGIVKAADRETQLDLIKKHPRLGTKKTMSDDSVREQQNAGLGKLEQQEYEEFLMLNEHYYDRFGFPFILAVKGKTKQDIHQALLARLESERETEFQQALIEIYRIARFRLADIITEKGETQMKRTMSYGKGNVFAYRTYLKPLTGVKQIPESSFAGRDNTVVGVDVTCEIGGEAFLPSFTDGDNTLVVATDSMKNFIQRHLASYEGTTTEGFLHYVAHRFLDTYSHMDTITLTGEDIPFEAMPAYEEKELSTSRLVFRRSRNERSRSVLKAERSGNTITITEQYSEIMDLQLVKVSGNSFVGFIRDEYTTLPEDGNRPLFVYLNISWQYENTNDSYASDPARYVAAEQVRDLASTVFHELETPSIQNLIYHIGCRILARFPQLTDVSFQSQNHTWDTVVEEIPGSKGKVYTEPRPPYGFQHFTVTREDAEKEKQKAAEKCRSLKA”: “failed”; “MFVFMLLLLLPFTISKAKDFPANPIEKAGYKLDFSDEFNGPTLDREKWTDYYLPHWCKDPESAKANYRFENGSLVEYITEDQKPWCPEHDGTVRSSAIMSFDKSWIHNFSGTTDNHERNEWRGYTTKYGYFEIRAKLSNTGGGGHQAWWMVGMQDDTNDWFNSKQTGEIDILETFFSKKDTWRIAAYGWNDPNFQTSWTISEDKVPSGDPTSEYHIYAMEWTPTALKFYYDNELFKVIYGSPDYEMGTILNIYTDAGSGAHNDVWPKEWAIDYMRVWKPVDGYKESESLNNYLIRNRQTGKFLYIEENNDKVSYGDITLKNEKNAKWSKEYRDGYTLLKNNETGEYLNIENQTGYIEHGKVPKTWWSAQWSEVPVDGYTRFVNRWKPNMSIHTESYEGVLQYGNVPNTYWTSQWQLIPVE”: “not failed”.

Turning to “MFVGFLSGLIVMGALLSILLVLLGVMALRVFVRYILPILLILLIIRLIISGIVLLFNPHFWLFIAVVALVLWILGKIRN”, the protein production entry is given as “failed”. Next, “MFVLNIFSTTHKQRGLNRASCPPLGNYSNNHTLAYRVKCISEETRDSNSLVSSLNRKLWKTSVAGSDIPMIYSPFLEDMQNTLFASFETVEDYPLSEFLASAQSSKKPARIESWCYQCPKFRKIRLTYLDAGVAAQVFNAVWYPISSLELPILGVDFLSFGGKNVLCVMDFQPLMNDQYYLDKYIQPLHPIRERYADLAGRMSSRFYDENRFFSKELLFGRFDSTKPIYERLFPAFREYLDLYITLAKQTVEDDKSRSIIWQLQCEYDRYSAEKDPAMSLFRSYFGSTWAHRFVYEFLFENSRYESSLDNKT”: “not failed”; “MFVNQHGYSFGLSCALDGLSKREKDAQRQNKLLELGLLTNRNSTFFEEATQTLARNLGLPICLVGLMVEDEINIVSAVGIYRLGVGNPNLVSRQISRNDAYCTLVVDSAMPLMITDALAEPFFAEGELYQRYGIRSYLGTPLLTRDGVCLGTLAALDFSPHDFREPDVALMNMTARWCMGEIEH”: “failed”.

On to “MFVSLLPLLLLTLVVGTLAGGEAFAERIVTAAGDVLTPAASTLLEDALTSGAGRGGATVLGVGVTLWSALKVFRGLDTAFSRVYGTDGPDSIVREIVDGLAALGGIGIALVGLGIIGAFGTVLGVQVALGGLALVPVLAVAFLPLYYLFPDQEMTLREAVPGAVFAGGGWTLLGTGFNVYAAQADSYQVYGVIGGVLLLVTWFYFAGQVLLVGAAVNAALADRQLQQVSRRRSGKAMSEDADETDTPPPAGTGPTGRDTDTLTDEELQELREEFESFREDIEGRTLHRDEVRSDLKQYVRRRMRRGHARQWGPYIVLLYGTIMTLGAFYYLKGLWAVLAMLVIWLSVLGLYAIMIAVGVTLTATGLPGRLVDRVRDWRQ”, for which the protein production result is reported as “failed”. Next, “MFVWHEYENAAEAAQSLADAVADALQGALDEKGGAVLAVSGGRSPIAFFNALSQKDLDWKNVGITLADERIVPTNHADSNTGLVREYLLKNKAAAAVWIPMVEDGKTETELHPDAVVDYALKHYKQPDVLILGMGNDGHTASIFPKAPQFQTAIDGSAGVALVHTTPVTAPHERISMTLDAIAHTGHVFLAIQGEEKKAVFDQAAQGENREYPISLVLNHQGVNCHVFYAE”: “not failed”; “MFYEKIQTPAYILEEDKLRKNCELLASVGEKSGAKVLLALKGFAFSGAMKIVGEYLKGCTCSGLWEAKFAKEYMDKEIHTYSPAFKEDEIGEIASLSHHIVFNSLAQFHKFQAKTQKNSLGLRCNVEFSLAPKELYNPCGRYSRLGIRAKDFENVDLSTIEGLHFHALCEESAGALEAVLKVFEEKFGKWIGQMKWVNFGGGHHITKKGYDVEKLIALCKNFSDKYGVQVYLEPGEAVGWQTGNLVASVVDIIENEKQIAILDTSSEAHMPDTIIMPYTSEVLNARILATRENEKISDLKESEFSYLLTGNTCLAGDVMGEYAFDKKLKIGDKIVFLDQIHYTIVKNTTFNGIRLPNLMLLNAKNELQMIREFSYKDYSLRN”: “failed”; “MFYITSKKVPFVTYSKNVFIPVTNICRNQCGYCGFRREPGQPGARLMKPEEVISVLENGVRAGCTEALFTFGERAEEVPGYGEMLEEIGYSSTLEYLVFLCETAIDIGILPHTNAGIMTRSELEALKPLNASMGLMLESTAVLAAHKDCPGKIPERRLETIREAGKLKIPYTTGLLIGIGESRDDRIESLEAIAALHREYGHIQEVIIQNFAPKPGTEMENFPEPAVEEMMDSVELAARILPGDVAVQVAPNLIDPKSLIAKGVTDLGGISPLTIDWINPEAEWPDVKNLQKKLGDIPLKERLPVYPPYVKKGWYSERIGSLIKRLEHHHHHH”: “failed”.

As for “MGAKGKFWILTMVVAISGLSQGVLLPLIAIILEEKGVSAGINGFHATGIYLGVLLVSPFIEAPLHKYGYKPIILVGGGLVAIAIFAFPIWFNLYFWFILRLLIGIGDHMLHFSSQTWIGAMSDPSKRGRNMAIYGLFFSVGFAIGPQLVNLAKVNANLPFFLSGILVLIAWSLVWFIRNDFVGEKAVIRKISFWGSIKRFSGVFKMAWVAMIPPFLYGILETGLNATFPVVGLRDGLDTMMIAMIISSFSVGTIIFQVPIGIISDKFGRDKMLPLLTGAGAVVFVLTAFVKIPIFFVIFFFILGILLGSLYSLGLSYMTDLTPLELLPAGNILVGMFFSLGSIIGPSATGMMIGIFGNQIFYFVVAGILLLGCLLLALGGRKEAH”, the protein production entry is “not failed”.
